Data as given in US20140011746A1 (WISCONSIN ALUMNI RESEARCH FOUNDATION, published 2014).

Key:
[1] = molecular target: T1, α3β1 integrin (human, UniProt P26006 33-1051; P05556 21-798); assay: immunoprecipitation of native mSdc4 or mSdc4ΔC2 (FIG. 6D)
T1 construct: whole, on cells; Endogenous receptor in cell lysates

[2] = molecular target: T2, HER2 (human, UniProt P04626 23-1255); assay: co-immunoprecipitation from mammary cell lysates
T2 construct: whole, on cells; Endogenous protein in cell lysates; also called ErbB2; HER2/Neu

[3] = molecular target: T3, EGFR (human, UniProt P00533 25-1210); assay: co-immunoprecipitation from cell lysates
T3 construct: whole, on cells; Endogenous protein in cell lysates

T1 sequence (P26006 33-1051, chain 1 of 2): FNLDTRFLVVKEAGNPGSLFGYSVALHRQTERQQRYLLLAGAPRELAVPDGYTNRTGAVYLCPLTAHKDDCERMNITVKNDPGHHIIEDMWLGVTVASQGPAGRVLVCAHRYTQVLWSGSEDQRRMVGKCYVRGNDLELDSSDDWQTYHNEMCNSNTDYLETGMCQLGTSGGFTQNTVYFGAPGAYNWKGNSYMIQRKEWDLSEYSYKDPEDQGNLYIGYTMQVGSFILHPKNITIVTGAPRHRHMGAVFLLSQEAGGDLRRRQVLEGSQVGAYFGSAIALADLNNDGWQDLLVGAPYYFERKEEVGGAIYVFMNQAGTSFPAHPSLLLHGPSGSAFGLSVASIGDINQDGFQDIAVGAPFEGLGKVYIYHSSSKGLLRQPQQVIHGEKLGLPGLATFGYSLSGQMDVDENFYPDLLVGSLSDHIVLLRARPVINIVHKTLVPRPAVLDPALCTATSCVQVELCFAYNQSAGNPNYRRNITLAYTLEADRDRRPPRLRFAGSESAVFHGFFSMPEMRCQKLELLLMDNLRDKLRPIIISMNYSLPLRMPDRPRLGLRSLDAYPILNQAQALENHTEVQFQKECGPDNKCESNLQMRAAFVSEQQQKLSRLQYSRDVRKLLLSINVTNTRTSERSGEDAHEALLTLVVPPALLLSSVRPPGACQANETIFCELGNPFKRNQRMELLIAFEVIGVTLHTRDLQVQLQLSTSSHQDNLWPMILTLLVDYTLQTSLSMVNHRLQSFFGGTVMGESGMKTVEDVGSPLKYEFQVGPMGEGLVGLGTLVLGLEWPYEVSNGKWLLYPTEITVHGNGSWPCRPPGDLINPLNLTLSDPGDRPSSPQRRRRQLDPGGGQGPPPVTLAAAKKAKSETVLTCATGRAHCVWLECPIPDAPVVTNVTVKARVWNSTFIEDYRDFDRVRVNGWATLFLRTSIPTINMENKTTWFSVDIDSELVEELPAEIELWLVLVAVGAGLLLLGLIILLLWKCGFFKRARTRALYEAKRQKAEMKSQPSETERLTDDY
T1 sequence (P05556 21-798, chain 2 of 2): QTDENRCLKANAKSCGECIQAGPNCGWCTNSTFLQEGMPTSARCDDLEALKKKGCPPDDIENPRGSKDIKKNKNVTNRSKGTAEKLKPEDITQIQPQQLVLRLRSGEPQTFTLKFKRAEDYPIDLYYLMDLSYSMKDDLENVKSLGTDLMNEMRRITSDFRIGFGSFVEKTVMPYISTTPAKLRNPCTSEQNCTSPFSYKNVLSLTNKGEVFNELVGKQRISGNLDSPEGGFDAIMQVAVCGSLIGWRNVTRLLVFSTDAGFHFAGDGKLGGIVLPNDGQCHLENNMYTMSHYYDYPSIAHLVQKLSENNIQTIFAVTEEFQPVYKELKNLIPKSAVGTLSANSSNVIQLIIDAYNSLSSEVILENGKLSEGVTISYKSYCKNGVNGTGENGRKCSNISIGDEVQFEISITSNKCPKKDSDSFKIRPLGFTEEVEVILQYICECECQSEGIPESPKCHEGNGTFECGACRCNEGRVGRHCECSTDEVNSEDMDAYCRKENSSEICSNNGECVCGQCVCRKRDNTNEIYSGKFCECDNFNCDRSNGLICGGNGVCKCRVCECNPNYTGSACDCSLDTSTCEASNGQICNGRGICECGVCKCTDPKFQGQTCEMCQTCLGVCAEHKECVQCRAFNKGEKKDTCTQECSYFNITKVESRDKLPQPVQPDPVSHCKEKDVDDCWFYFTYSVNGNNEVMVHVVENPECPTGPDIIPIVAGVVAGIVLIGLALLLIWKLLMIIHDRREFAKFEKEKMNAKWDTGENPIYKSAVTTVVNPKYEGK

B1: mSdc4ΔC2 mutant (receptor, mouse, UniProt O35988 24-194, looked up)
chain: ESIRETEVIDPQDLLEGRYFSGALPDDEDAGGSDDFELSGSGDLDDTEEPRPFPEVIEPLVPLDNHIPENAQPGIRVPSEPKELEENEVIPKRAPSDVGDDMSNKVSMSSTAQGSNIFERTEVLAALIVGGVVGILFAVFLILLLVYRMKKKDEGSYDLGKKPIYKKAPTN
notes: whole, on cells; Lacks the last four residues, EFYA; also called mSdc4 C2
- binding result [1]: binds

B2: human syndecan-4 (receptor, UniProt P31431 19-198, looked up)
chain: ESIRETEVIDPQDLLEGRYFSGALPDDEDVVGPGQESDDFELSGSGDLDDLEDSMIGPEVVHPLVPLDNHIPERAGSGSQVPTEPKKLEENEVIPKRISPVEESEDVSNKVSMSSTVQGSNIFERTEVLAALIVGGIVGILFAVFLILLLMYRMKKKDEGSYDLGKKPIYKKAPTNEFYA
notes: whole, on cells; Endogenous protein, immunoprecipitated as a control; also called Sdc4; human Sdc4
- binding result [2]: no binding

B3: human syndecan-1 (receptor)
chain: QIVATNLPPEDQDGSGDDSDNFSGSGAGALQDITLSQQTPSTWKDTQLLTAIPTSPEPTGLEATAASTSTLPAGEGPKEGEAVVLPEVEPGLTAREQEATPRPRETTQLPTTHQASTTTATTAQEPATSHPHRDMQPGHHETSTPAGPSQADLHTPHTEDGGPSATERAAEDGASSQLPAAEGSGEQDFTFETSGENTAVVAVEPDRRNQSPVDQGATGASQGLLDRKEVLGGVIAGGLVGLIFAVCLVGFMLYRMKKKDEGSYSLEEPKQANGGAYQKPTKQEEFYA
notes: Endogenous Sdc1 of human cells, immunoprecipitated from cell lysates; also called hSdc1; Sdc1
- binding result [3]: no binding
